The target of the test is hemagglutinin H1 on influenza virus A/Puerto Rico/8/34 strain (H1N1) (influenza virus A/Puerto Rico/8/34 (H1N1)) (UniProt P03452). The test is described as follows: cell-based or functional assay.

For C18-s2(1-4)P4A (C18-ARLA peptide amide), the IC50(µM), plaque assay, infection of MDCK cells was above 100 µM.

These data come from patent publication US20100119588A1.
